Source: patent US7271245B2, “Methods and compositions for inhibition of metastasis” (The Scripps Research Institute, priority 2004, dated 2007)

How the values were obtained:
Assay in all cases: Flow cytometry, binding to other RGD-recognizing integrins
[1] = target: T1, integrin αvβ5 (Homo sapiens, UniProt P06756+P18084)
T1 construct: UCLA-P3 lung adenocarcinoma cells (αv integrins, but no αvβ3); endogenous in cells; host or cells: UCLA-P3 human lung adenocarcinoma cells
Method: (§1) Flow cytometry. scFv binding to human tumor cells was analyzed by flow cytometry, initially with cloned scFv phage and then with purified scFv protein. Per sample, 2×10^5 tumor cells were blocked with goat serum and incubated either with scFv phage (2-5×10^10) (1 h at RT) followed by mouse anti-M13 mAb (Serotec) (30 min on ice) and goat FITC-anti mouse (Pierce) (30 min on ice), or with purified scFv (1.25 to 40 μg/ml, routinely 10 to 15 μg/ml) (45 min on ice), followed by mouse anti-FLAG mAb M2 (Sigma) (30 min on ice) and goat FITC-anti mouse. Binding/washing buffer was TBS with or without divalent cations (1 mM Ca^2+, 1 mM Mg^2+, 0.2 mM Mn^2+). Alternatively, tumor cells were washed in 10 ml of plasma (prepared freshly from human blood anticoagulated with 50 nM D-Phe-D-Pro-D-arginyl chloromethyl ketone, PPACK, Felding-Habermann et al., J. Biol. Chem. 271: 5892-5900, 1996), resuspended in plasma and then incubated sequentially, without washing, with purified scFv (45 min on ice), followed by anti-FLAG M2 (30 min on ice) and FITC-anti mouse (30 min on ice). All samples were counter stained with propidium iodide (PI) and analyzed on a Becton-Dickinson FACScan, with live gate set to exclude PI positive cells.
(§2) To generate therapeutic reagents that specifically react with activated αvβ3, a phage display library of single chain antibody fragments (scFv) was exploited. This library was derived from cancer patient blood lymphocyte cDNA libraries and allowed us to test the hypothesis that the expressed immune repertoire contains antibodies that recognize integrin αvβ3, and distinguish between its activated and non-activated forms. Mao et al., Proc. Natl. Acad. Sci. U.S.A 96: 6953-6958, 1999. A subtractive panning approach was designed based on variants of MDA-MB 435 human breast cancer cells. […] Apparently, these cells are selected during metastasis, as variant cells isolated from lung and bone metastases in immune deficient mice express constitutively activated αvβ3. To establish a cell population that uniformly expresses non-activated αvβ3, MDA-MB 435 parental cells were cloned by limiting dilution, and clones tested for αvβ3 functionality. […] A cell line, MDA-MB 435 Lung-Lung, was established which expressed αvβ3 in a constitutively activated form. This variant stems from a lung metastase of an immune deficient mouse whose mammary fat pad had been injected with parental MDA-MB 435 cells. […] After 5 rounds of subtracting the phage library on Parent Combo cells and panning on Lung-Lung cells, scFv clones were analyzed by flow cytometry for their ability to bind integrin αvβ3 on human tumor cells, and to distinguish between the activated and non-activated forms of the receptor (FIG. 1). […]

[2] = target: T2, alpha IIb beta 3 (Homo sapiens, UniProt P05106+P08514)
T2 construct: M21-LIIb cells (αIIbβ3, no αv integrin); expressed in transfected cells; host or cells: M21-LIIb human melanoma cells
Method: as §1, §2

[3] = target: T3, α5β1 (Homo sapiens, UniProt P05556+P08648)
T3 construct: endogenous in cells
T3 sequence (P08648 42-894 limits assumed): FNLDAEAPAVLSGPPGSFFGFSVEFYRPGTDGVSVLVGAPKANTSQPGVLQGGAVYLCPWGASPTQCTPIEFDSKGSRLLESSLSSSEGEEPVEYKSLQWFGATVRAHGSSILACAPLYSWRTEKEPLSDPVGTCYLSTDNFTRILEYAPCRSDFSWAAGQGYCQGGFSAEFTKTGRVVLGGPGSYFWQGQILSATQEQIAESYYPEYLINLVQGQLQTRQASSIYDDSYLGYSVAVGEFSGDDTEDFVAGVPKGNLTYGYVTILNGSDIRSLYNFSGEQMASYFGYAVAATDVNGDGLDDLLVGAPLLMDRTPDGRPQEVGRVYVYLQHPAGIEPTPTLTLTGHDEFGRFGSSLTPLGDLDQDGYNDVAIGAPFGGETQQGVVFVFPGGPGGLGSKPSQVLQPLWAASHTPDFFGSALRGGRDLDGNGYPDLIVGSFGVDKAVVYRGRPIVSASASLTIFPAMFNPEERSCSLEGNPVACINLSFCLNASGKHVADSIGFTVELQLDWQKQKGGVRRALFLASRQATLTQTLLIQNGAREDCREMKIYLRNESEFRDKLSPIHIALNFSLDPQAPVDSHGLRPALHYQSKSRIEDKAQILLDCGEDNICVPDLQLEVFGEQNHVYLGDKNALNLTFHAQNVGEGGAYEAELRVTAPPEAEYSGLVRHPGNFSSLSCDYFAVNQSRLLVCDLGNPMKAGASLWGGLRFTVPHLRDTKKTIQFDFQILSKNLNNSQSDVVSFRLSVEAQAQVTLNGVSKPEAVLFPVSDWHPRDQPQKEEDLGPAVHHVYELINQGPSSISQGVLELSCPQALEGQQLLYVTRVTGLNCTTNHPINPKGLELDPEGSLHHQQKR
T3 sequence (P08648 895-1049 partner limits assumed): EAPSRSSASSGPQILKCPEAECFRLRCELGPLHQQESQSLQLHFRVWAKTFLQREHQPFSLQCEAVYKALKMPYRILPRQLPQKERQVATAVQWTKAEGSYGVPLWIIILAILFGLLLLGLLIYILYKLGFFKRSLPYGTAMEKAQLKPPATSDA
T3 sequence (P05556 21-798): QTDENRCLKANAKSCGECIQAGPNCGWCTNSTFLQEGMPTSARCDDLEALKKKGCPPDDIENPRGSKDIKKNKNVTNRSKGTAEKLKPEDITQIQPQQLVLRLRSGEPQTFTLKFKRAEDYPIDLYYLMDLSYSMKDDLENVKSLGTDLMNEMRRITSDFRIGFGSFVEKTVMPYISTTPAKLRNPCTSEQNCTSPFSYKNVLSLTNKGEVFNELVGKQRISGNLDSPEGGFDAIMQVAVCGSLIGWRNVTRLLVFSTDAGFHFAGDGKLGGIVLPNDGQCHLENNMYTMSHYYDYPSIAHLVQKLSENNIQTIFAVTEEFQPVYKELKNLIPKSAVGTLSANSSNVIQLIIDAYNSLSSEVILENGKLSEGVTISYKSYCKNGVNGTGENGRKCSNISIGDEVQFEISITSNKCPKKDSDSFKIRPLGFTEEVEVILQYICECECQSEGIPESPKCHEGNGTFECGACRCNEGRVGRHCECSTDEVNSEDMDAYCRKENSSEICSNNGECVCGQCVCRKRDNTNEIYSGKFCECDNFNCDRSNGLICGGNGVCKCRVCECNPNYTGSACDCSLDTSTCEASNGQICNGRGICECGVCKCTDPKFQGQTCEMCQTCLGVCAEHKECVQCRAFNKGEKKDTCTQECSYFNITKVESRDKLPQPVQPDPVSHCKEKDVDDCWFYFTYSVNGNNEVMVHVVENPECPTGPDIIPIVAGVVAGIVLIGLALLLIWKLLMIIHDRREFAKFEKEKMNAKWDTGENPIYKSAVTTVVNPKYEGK
Method: as §1, §2

[4] = target: T4, αvβ1 (Homo sapiens, UniProt P05556+P06756)
T4 construct: UCLA-P3 lung adenocarcinoma cells (αv integrins, but no αvβ3); endogenous in cells; host or cells: UCLA-P3 human lung adenocarcinoma cells
T4 sequence (P06756 31-889 limits assumed): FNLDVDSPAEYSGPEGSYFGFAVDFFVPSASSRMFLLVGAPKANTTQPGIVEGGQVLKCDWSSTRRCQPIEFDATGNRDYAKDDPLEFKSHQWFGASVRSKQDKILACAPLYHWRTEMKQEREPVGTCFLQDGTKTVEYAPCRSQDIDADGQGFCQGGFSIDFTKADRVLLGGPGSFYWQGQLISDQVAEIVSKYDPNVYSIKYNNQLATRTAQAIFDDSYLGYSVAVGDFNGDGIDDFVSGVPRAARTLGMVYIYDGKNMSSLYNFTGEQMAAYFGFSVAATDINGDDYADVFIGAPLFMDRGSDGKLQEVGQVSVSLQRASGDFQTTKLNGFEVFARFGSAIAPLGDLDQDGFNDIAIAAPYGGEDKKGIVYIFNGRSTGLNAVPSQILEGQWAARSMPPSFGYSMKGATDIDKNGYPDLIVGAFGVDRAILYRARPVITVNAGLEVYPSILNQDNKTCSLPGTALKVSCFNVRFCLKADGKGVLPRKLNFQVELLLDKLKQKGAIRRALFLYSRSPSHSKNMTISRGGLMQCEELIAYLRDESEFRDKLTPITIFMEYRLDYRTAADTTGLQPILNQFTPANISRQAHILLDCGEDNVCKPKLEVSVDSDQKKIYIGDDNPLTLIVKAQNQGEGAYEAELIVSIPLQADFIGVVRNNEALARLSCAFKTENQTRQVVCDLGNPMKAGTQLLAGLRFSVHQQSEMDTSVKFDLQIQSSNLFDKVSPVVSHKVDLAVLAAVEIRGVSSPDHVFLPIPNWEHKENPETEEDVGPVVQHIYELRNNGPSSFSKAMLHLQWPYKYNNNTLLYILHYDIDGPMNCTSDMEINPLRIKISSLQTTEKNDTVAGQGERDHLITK
T4 sequence (P06756 891-1048 partner limits assumed): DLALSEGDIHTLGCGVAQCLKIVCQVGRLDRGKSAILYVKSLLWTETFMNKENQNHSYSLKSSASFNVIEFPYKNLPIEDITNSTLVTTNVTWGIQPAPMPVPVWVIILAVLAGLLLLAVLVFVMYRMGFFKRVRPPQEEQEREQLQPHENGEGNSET
T4 sequence (P05556 21-798): as the sequence (P05556 21-798) above
Method: as §1, §2

T1 sequence (P06756 31-889 limits assumed): as the sequence (P06756 31-889 limits assumed) above
T1 sequence (P06756 891-1048 partner limits assumed): as the sequence (P06756 891-1048 partner limits assumed) above
T1 sequence (P18084 24-799): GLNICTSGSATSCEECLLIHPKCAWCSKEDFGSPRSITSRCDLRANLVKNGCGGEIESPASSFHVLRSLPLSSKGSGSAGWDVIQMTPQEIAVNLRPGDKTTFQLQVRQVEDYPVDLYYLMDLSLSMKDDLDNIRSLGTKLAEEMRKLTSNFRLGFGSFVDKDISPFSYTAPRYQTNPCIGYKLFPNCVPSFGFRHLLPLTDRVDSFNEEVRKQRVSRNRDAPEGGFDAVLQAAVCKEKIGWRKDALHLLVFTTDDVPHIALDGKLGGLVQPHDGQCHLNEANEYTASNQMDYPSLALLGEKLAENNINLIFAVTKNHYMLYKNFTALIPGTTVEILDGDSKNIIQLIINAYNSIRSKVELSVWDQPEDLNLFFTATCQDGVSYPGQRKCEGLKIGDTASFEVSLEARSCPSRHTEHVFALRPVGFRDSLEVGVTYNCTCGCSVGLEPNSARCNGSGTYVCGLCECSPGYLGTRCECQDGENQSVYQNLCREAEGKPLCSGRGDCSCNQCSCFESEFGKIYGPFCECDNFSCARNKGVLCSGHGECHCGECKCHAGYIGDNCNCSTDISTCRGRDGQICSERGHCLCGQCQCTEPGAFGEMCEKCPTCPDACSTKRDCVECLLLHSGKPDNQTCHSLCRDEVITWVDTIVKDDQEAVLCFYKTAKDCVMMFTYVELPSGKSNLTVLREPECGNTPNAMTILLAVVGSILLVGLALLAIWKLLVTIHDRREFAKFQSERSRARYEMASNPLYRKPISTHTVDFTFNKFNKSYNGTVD

B1: Bc-12: patient derived human scFv antibody against activated αvβ3 with RGD motif in CDR-H3; cDNA ATCC PTA-6303 (protein)
scFv: MAQVQLVQSGAEVKKPGASVKVSCKASGYTFSNYGITWVRQAPGQGLEWMGWINNGNTHYAQKFQGRVTMTTDTSTSTAYMELRSLRSDDTAVYYCARDPRGDDEPYWGQGTLVTVSSGGGGSGGGGSGGGGSEIVLTQSPLSLPVTLGQPASISCRSSQNLVYSDGNTYLSWFQQRPGQSPRRLIYKVSNRDSGVPDRFSGSGSGTDFTLKISRVEAEDIGVYYCMQGTHWPPRTFGQGTKVEIKRGLGGLVDYKDDDDK
do not bind: binding to integrin αvβ5 [1] | binding to alpha IIb beta 3 [2] | binding to α5β1 [3] | binding to αvβ1 [4]
